Data published in US20040259798A1 (KARYON CTT, published 2004).
Bridge positions count the residues as written; N and C are the ends. Ends that are not written are not given here.

B1: phage displaying CPCFLLGCC (LLG-C4) (peptide)
peptide: CPCFLLGCC
B2: phage displaying CWKLLGSEEEC (peptide)
peptide: CWKLLGSEEEC
B3: phage displaying CWHKDLLGC (peptide)
peptide: CWHKDLLGC
B4: phage displaying CWSMELLGC (peptide)
peptide: CWSMELLGC
B5: phage displaying CPPDLFWYC (peptide)
peptide: CPPDLFWYC
B6: C(1-8;3-9) peptide (peptide)
peptide: CPCFLLGCC
modifications: disulfide 1-8, 3-9
notes: also called LLG-C4 peptide; LLG-C4 nonapeptide

Each binder was assayed against αMβ2 integrin (Mac-1) (UniProt P11215 17-1152; P05107 23-769) (assay: phage display biopanning on coated αMβ2 integrin).
Protocol: The αMβ₂ integrin was purified by antibody affinity chromatography from buffy coats obtained from Finnish Red Cross Blood Transfusion Service as described previously (Li et al., 1995). Integrin diluted in Tris-buffered saline (TBS)/1 mM MnCl₂ was coated onto microtiter wells overnight at 4° C. using […] per well in the first biopanning and 100, 10 and 1 ng in subsequent pannings. The wells were blocked with 5% BSA in TBS for 1 h at 22° C. and then washed five times with TBS. Biopanning was performed using CX₇C and CX₉GC phage peptide libraries essentially as described (Koivunen et al., 1994). The construction of libraries was modified so that the single-stranded DNA encoding degenerate sequences was converted into a double-stranded form using 5 cycles of PCR with only the reverse primer and then 11 cycles with both the reverse and forward primer. A total of 6 μg of the double-stranded oligonucleotide was purified using QIAGEN PCR purification kit and ligated with 42 μg of the Fuse5 phage vector. The number of recombinants in the libraries was more than 10⁹. Phage binding, elution and subsequent amplification in E. coli were repeated five times, and after each panning bacterial colonies were picked up and stored in a 10 μl volume of TBS in microtiter wells at −20° C. For direct colony sequencing, […] aliquots of the thawed samples were subjected to PCR with 10 pmol each of the forward primer 5′ […] 3′ and the reverse primer 5′[…] 3′. The PCR conditions were 92° C. for 30 s, 60° C. for 30 s, and 72° C. for 60 s, and the cycle number was 35. One μl aliquot of the PCR reaction was taken for sequencing using 15 pmol of either one of the primers and analyzed on an ABI 310 apparatus (PE Applied Biosystems, Foster City, Calif.).
After the fifh round of selection, the CX₇C library gave a 600-fold enrichment and CX₉GC a 1000-fold enrichment of phage bound to the integrin in comparison to background. […] Four of them contained the LLG tripeptide motif.

Does B1 bind?
Result: binds

Does B2 bind?
Result: binds

Does B3 bind?
Result: binds

Does B4 bind?
Result: binds

Does B5 bind?
Result: binds

These binders were tested against T1, αLβ2 integrin on Jurkat cells (UniProt P20701 26-1170; P05107 23-769, limits assumed) (assay: inhibition of αLβ2-mediated Jurkat cell adhesion to ICAM-1-Fc (coated directly or captured via protein A), Crystal Violet staining).
T1 construct: whole, on cells

For B6, which IC50 is on record?
The IC50 was roughly 80 µM.
